The source of these data is paper PMC9179170 (Nature, 2021).

For the experiment, the target named is Hsp90α ATP-binding-deficient mutant Hsp90(D93N) (human, UniProt P07900 1-732, D93N). Nature of the experiment: cryo-EM structure.

B1: MBP–GRLBD(520–777) (F602S) (domain or fragment, UniProt P04150 520-777, looked up)
chain: IVPATLPQLTPTLVSLLEVIEPEVLYAGYDSSVPDSTWRIMTTLNMLGGRQVIAAVKWAKAIPGFRNLHLDDQMTLLQYSWMSLMAFALGWRSYRQSSANLLCFAPDLIINEQRMTLPCMYDQCKHMLYVSSELHRLQVSYEEYLCMKTLLLLSSVPKDGLKSQELFDEIRMTYIKELGKAIVKREGNSSQNWQRFYQLTKLLDSMHEVVENLLNYCFQTFLDKTMSIEFPEMLAEIITNQIPKYSNGNIKKLLFHQK
In the case of B1, the binding result is listed as “binds”.
